The source of these data is PMC5700813, “A recombinant BBSome core complex and how it interacts with ciliary cargo” (eLife, 2017).

Like-named read-outs stand apart in the source and are kept apart here. Ends that are not written are not given here. fluorescein = fluorescein, N-terminal fluorescent label

The labels stand for the following.
B1: BBS1 (aa1-430) (domain or fragment, human, UniProt Q8NFJ9-1 1-430, looked up)
chain: MAAASSSDSDACGAESNEANSKWLDAHYDPMANIHTFSACLALADLHGDGEYKLVVGDLGPGGQQPRLKVLKGPLVMTESPLPALPAAAATFLMEQHEPRTPALALASGPCVYVYKNLRPYFKFSLPQLPPNPLEQDLWNQAKEDRIDPLTLKEMLESIRETAEEPLSIQSLRFLQLELSEMEAFVNQHKSNSIKRQTVITTMTTLKKNLADEDAVSCLVLGTENKELLVLDPEAFTILAKMSLPSVPVFLEVSGQFDVEFRLAAACRNGNIYILRRDSKHPKYCIELSAQPVGLIRVHKVLVVGSTQDSLHGFTHKGKKLWTVQMPAAILTMNLLEQHSRGLQAVMAGLANGEVRIYRDKALLNVIHTPDAVTSLCFGRYGREDNTLIMTTRGGGLIIKILKRTAVFVEGGSEVGPPPAQAMKLNVPRK
notes: BBS1, human, residues 1-430; also called BBS1 ß-propeller domain; truncated BBS1 subunit; source: Hi5 insect cells (baculovirus), purified

Data set [1] has as its target T1, 5HT6 CT (human (from the printed UniProt accession)). Put plainly: fluorescence polarisation; fluorescein-labelled peptide or Smo fragment (0.1–1 µM) titrated with core BBSome or BBS1 (aa1-430); quadratic binding fit. For orientation: In fluorescence polarisation assays a small probe gives low polarisation when free and higher when bound to something large.
The data set “SSTR3 CT6 (human)” concerns the target SSTR3 CT6 (human (from the printed UniProt accession)). The data set is described as above.
The target of the data set “GPR161 3ICL (human)” is GPR161 3ICL (human (from the printed UniProt accession)). Described as above.
The data set “SSTR3 CT2 (human)” concerns the target SSTR3 CT2 (human (from the printed UniProt accession)). The data set is described as above.
The data set “SSTR3 CT4 (human)” concerns the target SSTR3 CT4 (human (from the printed UniProt accession)). Described as above.
In the data set “SSTR3 CT5 (human)” the target is SSTR3 CT5 (human (from the printed UniProt accession)). Described as above.
The data set “NMU 3ICL2 (human)” deals with NMU 3ICL2 (human (from the printed UniProt accession)). The data set is described as above.
Chain of NMU 3ICL2 (human (Q9HB89 271-294): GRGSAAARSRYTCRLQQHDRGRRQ
The data set “Smo CT1 (human)” deals with Smo CT1 (human (from the printed UniProt accession)). Described as above.
The data set “SSTR3 CT8 (human)” concerns the target SSTR3 CT8 (human (from the printed UniProt accession)). The data set is described as above.
The data set “Smo CT7 (human)” concerns the target Smo CT7 (human (from the printed UniProt accession)). Described as above.
The data set “Smo CT6 (human)” deals with Smo CT6 (human (from the printed UniProt accession)). Described as above.
The target of data set [2] is fluoresceine-labeled Smo (R546-L665) (human (from the printed UniProt accession)) (UniProt Q99835). Described as above.
Chain of fluoresceine-labeled Smo (R546-L665) (human (Q99835 546-665): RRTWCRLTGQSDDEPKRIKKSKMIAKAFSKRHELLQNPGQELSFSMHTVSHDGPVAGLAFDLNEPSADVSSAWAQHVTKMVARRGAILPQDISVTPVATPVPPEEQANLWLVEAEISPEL
The data set “Smo CT4 (human)” deals with Smo CT4 (human (from the printed UniProt accession)). Described as above.
The target in the data set “NMU 3ICL1 (human)” is NMU 3ICL1 (human (from the printed UniProt accession)). The data set is described as above.
Chain of NMU 3ICL1 (human (peptide, as listed by the source): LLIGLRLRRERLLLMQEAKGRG
The data set “SSTR3 CT7 (human)” addresses SSTR3 CT7 (human (from the printed UniProt accession)). The description is as above.
In the data set “SSTR3 CT3 (human)” the target is SSTR3 CT3 (human (from the printed UniProt accession)). Described as above.
In the data set “GPR161 CT2 (human)” the target is GPR161 CT2 (human (from the printed UniProt accession)). The data set is described as above.
Chain of GPR161 CT2 (human (Q8N6U8 489-510): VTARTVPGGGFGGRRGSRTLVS
The data set “Smo CT2 (human)” deals with Smo CT2 (human (from the printed UniProt accession)). The description is as above.
Data set [3] has as its target T1, 5HT6 CT (human). The description is as above. This is another data set of the same source.
The data set “SSTR3 CT1 (human)” concerns the target SSTR3 CT1 (human (from the printed UniProt accession)). The description is as above.
The data set “Smo CT8 (human)” deals with Smo CT8 (human (from the printed UniProt accession)). The description is as above.
The target in the data set “SSTR3 3ICL (human)” is SSTR3 3ICL (human (from the printed UniProt accession)). Described as above.
The target in the data set “Smo CT5 (human)” is Smo CT5 (human (from the printed UniProt accession)). The description is as above.
The data set “MCH 3ICL (human)” addresses MCH 3ICL (human (from the printed UniProt accession)). The description is as above.
The data set “Smo CT3 (human)” deals with Smo CT3 (human (from the printed UniProt accession)). The data set is described as above.
Chain of Smo CT3 (human (Q99835 541-577): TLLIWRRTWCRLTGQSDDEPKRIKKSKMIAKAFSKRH
The target of the data set “GPR161 CT1 (human)” is GPR161 CT1 (human (from the printed UniProt accession)). The data set is described as above.
Chain of GPR161 CT1 (human (Q8N6U8 328-354): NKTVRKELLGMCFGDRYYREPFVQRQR
The data set “SSTR3 CT9 (human)” concerns the target SSTR3 CT9 (human (from the printed UniProt accession)). The description is as above.
For the next data set, the target named is T2, SSTR3 CT2 (human (from the printed UniProt …, fluorescein on the N-terminus)).
T2 construct: SSTR3, three residues of the 7th transmembrane region and 21 of the C-terminus; limits worked out from the printed RRVR 333-336; source: synthetic peptide, bought: Proteogenix
T2 peptide: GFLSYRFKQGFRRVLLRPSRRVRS
The description is as above. As to conditions: both partners purified.

Data set [4] deals with the molecule itself. Put plainly: SEC; full length BBS9 at high concentrations; at lower concentrations the single peak shifts to lower molecular weight (fast equilibrium between monomer and dimer). In general terms: Size exclusion chromatography separates by hydrodynamic size, large species first.
The data set “BBS1 (aa1-430)” addresses B1. Put plainly: fluorescence polarisation; fluorescein-labelled peptide or Smo fragment (0.1–1 µM) titrated with core BBSome or BBS1 (aa1-430); quadratic binding fit. Particulars: both partners purified.
Data set [5] deals with the molecule itself. The experiment in a line: SEC; samples purified by affinity chromatography and gel filtration; 2.5–10 µg of the peak fraction on a Superdex 200 5/20 column; elution volume against standard proteins.

T1 sequence (P50406 325-344): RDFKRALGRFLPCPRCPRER
Chain of MCH 3ICL (human (peptide, as listed by the source): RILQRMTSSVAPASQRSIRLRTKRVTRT

With “6mer BBSome core complex (BBS1, 4, 5, 8, 9 and 18) (from UniProt Q8NFJ9-1 1-593; Q96RK4-1 1-519; Q8N3I7-1 1-341; Q8TAM2 1-541; Q3SYG4-1 1-887; A8MTZ0-1 1-92)”, the Kd – broadly, the constant that tells how readily two partners part at equilibrium – in the data set with 5HT6 CT (human) [1] was greater than 50 µM; with SSTR3 CT6 (human), 4.5 µM; in the data set with GPR161 3ICL (human), 6.3 µM; with SSTR3 CT2 (human) it was 0.11 µM; with SSTR3 CT4 (human), 0.4 µM; with SSTR3 CT5 (human), 1.5 µM. Moreover, the Kd is greater than 100 µM in the data set with NMU 3ICL2 (human); 1.8 µM with Smo CT1 (human); 11 µM in the data set with SSTR3 CT8 (human); 14.3 µM in the data set with Smo CT7 (human); 12.5 µM with Smo CT6 (human); 36.1 µM in data set [2]. For the same molecule, the Kd in the data set with Smo CT4 (human) is 1.1 µM; with NMU 3ICL1 (human) it was 18.1 µM; with SSTR3 CT7 (human), 1 µM; with SSTR3 CT3 (human) it was 1.1 µM; in the data set with GPR161 CT2 (human), greater than 100 µM; with Smo CT2 (human), greater than 100 µM. The Kd with 5HT6 CT (human) [3] was found to be 44.2 µM; with SSTR3 CT1 (human) it was 22.1 µM; in the data set with Smo CT8 (human) it was 6.8 µM; with SSTR3 3ICL (human), 12.8 µM; in the data set with Smo CT5 (human), 9.7 µM; with MCH 3ICL (human) it was 68.8 µM. The Kd in the data set with Smo CT3 (human) was determined as 1.4 µM; in the data set with GPR161 CT1 (human) it was 67.4 µM; with SSTR3 CT9 (human), 4.7 µM.
As for B1, the “fold lower affinity than to the core BBSome” value in the data set with SSTR3 CT2 was roughly 100 fold.

B2: BBS9 (full length) (natural protein, human, UniProt Q3SYG4-1 1-887, looked up)
chain: MSLFKARDWWSTILGDKEEFDQGCLCLANVDNSGNGQDKIIVGSFMGYLRIFSPHPAKTGDGAQAEDLLLEVDLRDPVLQVEVGKFVSGTEMLHLAVLHSRKLCVYSVSGTLGNVEHGNQCQMKLMYEHNLQRTACNMTYGSFGGVKGRDLICIQSMDGMLMVFEQESYAFGRFLPGFLLPGPLAYSSRTDSFLTVSSCQQVESYKYQVLAFATDADKRQETEQQKLGSGKRLVVDWTLNIGEQALDICIVSFNQSASSVFVLGERNFFCLKDNGQIRFMKKLDWSPSCFLPYCSVSEGTINTLIGNHNNMLHIYQDVTLKWATQLPHIPVAVRVGCLHDLKGVIVTLSDDGHLQCSYLGTDPSLFQAPNVQSRELNYDELDVEMKELQKIIKDVNKSQGVWPMTEREDDLNVSVVVSPNFDSVSQATDVEVGTDLVPSVTVKVTLQNRVILQKAKLSVYVQPPLELTCDQFTFEFMTPDLTRTVSFSVYLKRSYTPSELEGNAVVSYSRPTDRNPDGIPRVIQCKFRLPLKLICLPGQPSKTASHKITIDTNKSPVSLLSLFPGFASQSDDDQVNVMGFHFLGGARITVLASKTSQRYRIQSEQFEDLWLITNELILRLQEYFEKQGVKDFACSFSGSIPLQEYFELIDHHFELRINGEKLEELLSERAVQFRAIQRRLLARFKDKTPAPLQHLDTLLDGTYKQVIALADAVEENQGNLFQSFTRLKSATHLVILLIALWQKLSADQVAILEAAFLPLQEDTQELGWEETVDAAISHLLKTCLSKSSKEQALNLNSQLNIPKDTSQLKKHITLLCDRLSKGGRLCLSTDAAAPQTMVMPGGCTTIPESDLEERSVEQDSTELFTNHRHLTAETPRPEVSPLQGVSE
notes: BBS9, human, as NM_198428.2 (887 residues by the printed range 363-887); source: Hi5 insect cells (baculovirus); alone, purified, or co-expressed with other subunits
Take B2: in data set [4], the stoichiometry N (usually the number of molecules, sites or subunits per partner or assembly) is 2.

B3: SSTR3 3ICL (peptide)
peptide: fluorescein-VKVRSAGRRVWAPSCQRRRRSERRVTRM
notes: SSTR3, third intracellular loop; source: synthetic peptide, bought: Proteogenix
As to B3, the binding result with BBS1 (aa1-430) is listed as “binds”.

B4: BBS9 C-terminal part (residues 363–887) (domain or fragment, human, UniProt Q3SYG4-1 363-887, looked up)
chain: PSLFQAPNVQSRELNYDELDVEMKELQKIIKDVNKSQGVWPMTEREDDLNVSVVVSPNFDSVSQATDVEVGTDLVPSVTVKVTLQNRVILQKAKLSVYVQPPLELTCDQFTFEFMTPDLTRTVSFSVYLKRSYTPSELEGNAVVSYSRPTDRNPDGIPRVIQCKFRLPLKLICLPGQPSKTASHKITIDTNKSPVSLLSLFPGFASQSDDDQVNVMGFHFLGGARITVLASKTSQRYRIQSEQFEDLWLITNELILRLQEYFEKQGVKDFACSFSGSIPLQEYFELIDHHFELRINGEKLEELLSERAVQFRAIQRRLLARFKDKTPAPLQHLDTLLDGTYKQVIALADAVEENQGNLFQSFTRLKSATHLVILLIALWQKLSADQVAILEAAFLPLQEDTQELGWEETVDAAISHLLKTCLSKSSKEQALNLNSQLNIPKDTSQLKKHITLLCDRLSKGGRLCLSTDAAAPQTMVMPGGCTTIPESDLEERSVEQDSTELFTNHRHLTAETPRPEVSPLQGVSE
notes: BBS9, human, residues 363-887 (GAE, platform and alpha-helical domains); also called C-terminal domain of BBS9; C-terminal appendage part; source: Hi5 insect cells (baculovirus); alone, purified, or co-expressed with BBS1
On to B4, for which the “stoichiometry N” value in [5] was 2.
